Assay results taken from doi:10.1101/2021.12.06.471412 (bioRxiv, 2021).

Columns and labels:
[1] = target: T1, recombinant mature human OSCP (human, UniProt P48047 24-213); experiment: SPR
T1 sequence: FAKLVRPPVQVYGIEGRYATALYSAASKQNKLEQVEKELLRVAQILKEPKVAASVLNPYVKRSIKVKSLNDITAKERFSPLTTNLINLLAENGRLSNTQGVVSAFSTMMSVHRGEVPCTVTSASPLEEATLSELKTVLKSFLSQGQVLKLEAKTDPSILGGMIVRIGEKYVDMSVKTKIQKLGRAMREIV

[2] = target: T2, purified human TRAP1 (human, UniProt Q12931 60-704); experiment: far-Western, overlay or dot blot
T2 sequence: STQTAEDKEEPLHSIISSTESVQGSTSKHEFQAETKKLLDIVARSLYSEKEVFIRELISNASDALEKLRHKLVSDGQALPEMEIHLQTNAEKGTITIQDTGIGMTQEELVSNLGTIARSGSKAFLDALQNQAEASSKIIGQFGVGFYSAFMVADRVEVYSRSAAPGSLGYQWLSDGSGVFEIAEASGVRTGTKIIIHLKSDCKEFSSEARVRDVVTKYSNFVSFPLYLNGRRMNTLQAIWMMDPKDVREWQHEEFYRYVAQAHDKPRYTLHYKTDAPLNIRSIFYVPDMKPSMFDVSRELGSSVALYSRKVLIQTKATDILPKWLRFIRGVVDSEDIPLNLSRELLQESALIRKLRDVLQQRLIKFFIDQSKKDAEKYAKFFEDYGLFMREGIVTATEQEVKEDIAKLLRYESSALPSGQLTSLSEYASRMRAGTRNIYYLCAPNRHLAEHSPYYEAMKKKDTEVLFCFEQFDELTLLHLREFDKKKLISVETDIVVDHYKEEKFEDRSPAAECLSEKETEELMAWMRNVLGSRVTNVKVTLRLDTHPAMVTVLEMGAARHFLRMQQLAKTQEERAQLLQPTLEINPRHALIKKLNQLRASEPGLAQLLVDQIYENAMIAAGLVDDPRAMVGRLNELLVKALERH

| binding result [1] | binding result [2] | Binder |
| --- | --- | --- |
|  | binds | F-ATP synthase subunit g (bovine heart) (natural protein) MAEFVRNLAEKAPALVNAAVTYSKPRLATFWYYAKVELVPPTPAEIPTAIQSLKKIINSAKTGSFKQLTVKEALLNGLVATEVWMWFYVGEIIGKRGIIGYDV |
|  | binds | F-ATP synthase subunit α (bovine heart) (natural protein) QKTGTAEVSSILEERILGADTSVDLEETGRVLSIGDGIARVHGLRNVQAEEMVEFSSGLKGMSLNLEPDNVGVVVFGNDKLIKEGDIVKRTGAIVDVPVGEELLGRVVDALGNAIDGKGPIGSKARRRVGLKAPGIIPRISVREPMQTGIKAVDSLVPIGRGQRELIIGDRQTGKTSIAIDTIINQKRFNDGTDEKKKLYCIYVAIGQKRSTVAQLVKRLTDADAMKYTIVVSATASDAAPLQYLAPYSGCSMGEYFRDNGKHALIIYDDLSKQAVAYRQMSLLLRRPPGREAYPGDVFYLHSRLLERAAKMNDAFGGGSLTALPVIETQAGDVSAYIPTNVISITDGQIFLETELFYKGIRPAINVGLSVSRVGSAAQTRAMKQVAGTMKLELAQYREVAAFAQFGSDLDAATQQLLSRGVRLTELLKQGQYSPMAIEEQVAVIYAGVRGYLDKLEPSKITKFENAFLSHVISQHQALLSKIRTDGKISEESDAKLKEIVTNFLAGFEA |

More lines, now with the values behind:

| Binder | binding result [1] | binding result [2] |
| --- | --- | --- |
| recombinant mature human CyPD (natural protein) not shown | binds |  |
| F-ATP synthase subunit b (bovine heart) (natural protein) PVPPLPEHGGKVRFGLIPEEFFQFLYPKTGVTGPYVLGTGLILYLLSKEIYVITPETFSAISTIGFLVYIVKKYGASVGEFADKLNEQKIAQLEEVKQASIKQIQDAIDMEKSQQALVQKRHYLFDVQRNNIAMALEVTYRERLHRVYREVKNRLDYHISVQNMMRQKEQEHMINWVEKRVVQSISAQQEKETIAKCIADLKLLSKKAQAQPVM |  | binds |
| F-ATP synthase subunit OSCP (bovine heart) (natural protein) FAKLVRPPVQIYGIEGRYATALYSAASKQNKLEQVEKELLRVGQILKEPKMAASLLNPYVKRSVKVKSLSDMTAKEKFSPLTSNLINLLAENGRLTNTPAVISAFSTMMSVHRGEVPCTVTTASALDEATLTELKTVLKSFLSKGQVLKLEVKIDPSIMGGMIVRIGEKYVDMSAKTKIQKLSRAMREIL |  | binds |
